In US12702716B2, “Monocyte-specific aptamers and uses thereof for delivering therapeutic agents to heart” (Academia Sinica, priority 2020, dated 2026):

Key:
[1] = tested on: human umbilical cord endothelial cells (HUVEC); test: Flow cytometry binding of Cy5-labeled aptamers to HUVEC (negative control); settings: 200 nM Cy5-aptamer, 4° C., 30 minutes; FIG. 3
Method: (§1) To confirm that J10 binding, but not S2 binding, was selective to human monocytes in vitro, Cy5-labeled J10 and S2 were also incubated with the human monocyte cell lines, THP-1 and U937, and human umbilical cord endothelial cells (HUVEC), which were used as a negative control. In brief, 5×10^5 of each selected cell line was pre-mixed in a bloc king buffer (20% FBS and 10% salmon sperm DNA in PBS) at 4° C. for 30 minutes. After that, the cells were reacted with 200 nM Cy5-J10 or Cy5-S2 in the blocking buffer at 4° C. for 30 minutes. Finally, the sample was subjected to flow cytometry using standard protocols known in the art.

[2] = tested on: mouse endothelial cell line SVEC; test: Flow cytometry binding of Cy5-labeled aptamers to SVEC (negative selection); settings: 200 nM Cy5-aptamer, 4° C., 30 minutes; FIG. 2A
Method: (§2) Cy5-labeled J10 and S2 were also incubated with the mouse endothelial cell line SVEC which was used as a negative selection. In brief, 5×10^5 of each selected cell line was pre-mixed in a bloc king buffer (20% FBS and 10% salmon sperm DNA in PBS) at 4° C. for 30 minutes. After that, the cells were reacted with 200 nM Cy5-J10 or Cy5-S2 in the blocking buffer at 4° C. for 30 minutes. Finally, the sample was subjected to flow cytometry using standard protocols known in the art.

[3] = tested on: RAW264.7 monocyte cell line; test: Flow cytometry binding of Cy5-labeled aptamers to RAW264.7; design: species or system mouse; settings: 200 nM Cy5-aptamer, 4° C., 30 minutes; FIG. 2A
Method: as §2

[4] = tested on: human monocyte cell line THP-1; test: Flow cytometry binding of Cy5-labeled aptamers to THP-1; settings: 200 nM Cy5-aptamer, 4° C., 30 minutes; FIG. 3
Method: as §1

[5] = tested on: human monocyte cell line U937; test: Flow cytometry binding of Cy5-labeled aptamers to U937; settings: 200 nM Cy5-aptamer, 4° C., 30 minutes; FIG. 3
Method: as §1

[6] = tested on: infarct area of the injured hearts; settings: mouse, iv
Method: as §2
To generate the murine I/R models, 8-10 weeks old mice were anesthetised with 80 mg/kg Zoletil 50 and 3.5 mg/kg Rompun and given O2 via a tracheal tube on the 37° C. heating pad. The heart was accessed via left thoracotomy between the third and fourth ribs. The left anterior descending coronary artery was temporarily ligated with sutures 7-0 polypropylene through polyethylene-10 tubing for 45 minutes. Subsequently, polyethylene-10 tubing was removed to induce myocardial ischemia/reperfusion injury. The success of the surgery was evaluated by echocardiography on the following day.

[7] = tested on: J774A.1 monocyte cell line; test: Flow cytometry binding of Cy5-labeled aptamers to J774A.1; design: species or system mouse; settings: 200 nM Cy5-aptamer, 4° C., 30 minutes; FIG. 2A
Method: as §2

[8] = tested on: circulating myeloid cells (CD45+ CD11b+ cells); test: Ex vivo binding to peripheral blood cells by flow cytometry; design: species or system mouse; settings: 2 μM Cy5-Apt, 30 minutes at 4° C., peripheral blood of healthy mice; FIG. 2D
Method: To test for ex vivo binding specificity and affinity, 100 μL peripheral blood from healthy mice was withdrawn via the submandibular vein, collected in EDTA-containing anticoagulant tubes (BD Vacutainer), and incubated with 2 mL ACK lysing buffer for 10 minutes to lyse the red blood cells. After that, 2% FBS in PBS was added to stop the reaction. Following centrifugation (300 g for 3 minutes at 4° C.) the supernatants were removed. One million cells were blocked by CD16/CD32 Fc blocking antibody (1:100; Invitrogen) after incubation for 20 minutes. Then the cells were stained for CD45 (PE-Cy7; 1:100; Biolegend), CD11b (PE; 1:200; Biolegend) and 2 μM Cy5-Apt for 30 minutes at 4° C. Finally, the cells were washed by 2% FBS in PBS and subjected to flow cytometry using standard protocols known in the art.

| Molecule | binding affinity to HUVEC [1] | detection of Cy5-labeled aptamer in SVEC [2] | percentage of Cy5-labeled monocytes (RAW264.7) [3] | binding affinity to THP-1 [4] | binding affinity to U937 [5] | in vivo targeting of aptamer to the injured site (PCR) [6] | percentage of Cy5-labeled monocytes (J774A.1) [7] | affinity to circulating myeloid cells (CD45+ CD11b+ cells) [8] |
| --- | --- | --- | --- | --- | --- | --- | --- | --- |
| J10: monocyte-specific DNA aptamer from cell-SELEX, SEQ ID NO. 4 (Table 2); Cy5-labeled for flow cytometry (nucleic acid, DNA, backbone and methylation of C not given here; Cy5 label) DNA: CAATAGAGTCGTACAGGTCGACGCTCGGATGCCACTACAGGGATGGGAGGGAGGGGGCTCGTGGCGGCTAGGGGGTATAACTCATGGACGTGCTGGTGAC | but not human endothelial cell line HUVEC | no detection | significantly higher than the percentage of Cy5-labeled S2 monocytes | high binding affinity | high binding affinity | confirmed in vivo targeting ability | significantly higher than the percentage of Cy5-labeled S2 monocytes | high affinity |
| S2: control aptamer, scrambled J10 sequence with same nucleotide composition, SEQ ID NO. 5 (nucleic acid, DNA, backbone and methylation of C not given here; Cy5 label) DNA: CAATAGAGTCGTACAGGTCGTGAGAAGGCGTTGGTCTATCGGGGTCGTGGACTGTCCAAGGGCATGACCGGTCTGACGGTGGCCAGAGACGCAGGAGGGG | no binding affinity | no detection | but not S2, was capable of binding selectively to monocytes in vitro | no binding affinity | no binding affinity |  | but not S2, was capable of binding selectively to monocytes in vitro |  |
